Measurements as given in PMC4077652, “An Unstable Th Epitope of P. falciparum Fosters Central Memory T Cells and Anti-CS Antibody Responses” (PLoS ONE, 2014).
Where no end group is shown, it is not given here.

Key:
[1] = target: soluble recombinant HLA-DR4 (HLA-DRβ1*04:01) (human); experiment: dissociation kinetics (LB3.1 capture, europium-streptavidin time-resolved fluorescence)
[2] = target: soluble recombinant HLA-DR4 (HLA-DRβ1*04:01) (human); experiment: ELISA
[3] = target: soluble recombinant HLA-DR4 (HLA-DRβ1*04:01) (human); experiment: ELISA; apparent Kd; direct binding of biotin-labeled peptide to DR4 as in the DR-ELISA (72 h), binding reactions set up with 1 µM HLA-DM

Binder	half-life [1] [h]	half-life with HLA-DM [1] [h]	Kd [2] [nM]	Kd [3] [nM]
QNSLSTEWSPCSVT (not fully specified (N-terminus)) [biotin-labeled QNT-5 332-345 peptide]	5.08	1.75	504	714
QNSYSTEWSPCSVT (not fully specified (N-terminus)) [biotin-labeled QNT-Y peptide (QNT-5 analogue L335Y)]	138	43.1	25.5	35.7
